One protein from ChEMBL document CHEMBL2074186 can be followed below.

The term Km denotes the substrate concentration at which the rate is half of its maximum.

Substrate in the data set: Nc1ccc(C(=O)NCC(=O)O)cc1
Description: cells, lysate or membranes named.

B1: Solute carrier family 22 member 6 (Rattus norvegicus) (protein)
chain: MAFNDLLKQVGGVGRFQLIQVTMVVAPLLLMASHNTLQNFTAAIPPHHCRPPANANLSKDGGLEAWLPLDKQGQPESCLRFTSPQWGPPFYNGTEANGTRVTEPCIDGWVYDNSTFPSTIVTEWNLVCSHRAFRQLAQSLYMVGVLLGAMVFGYLADRLGRRKVLILNYLQTAVSGTCAAYAPNYTVYCVFRLLSGMSLASIAINCMTLNVEWMPIHTRAYVGTLIGYVYSLGQFLLAGIAYAVPHWRHLQLVVSVPFFIAFIYSWFFIESARWYSSSGRLDLTLRALQRVARINGKQEEGAKLSIEVLRTSLQKELTLSKGQASAMELLRCPTLRHLFLCLSMLWFATSFAYYGLVMDLQGFGVSMYLIQVIFGAVDLPAKFVCFLVINSMGRRPAQMASLLLAGICILVNGIIPKSHTIIRTSLAVLGKGCLASSFNCIFLYTGELYPTVIRQTGLGMGSTMARVGSIVSPLVSMTAEFYPSMPLFIFGAVPVVASAVTALLPETLGQPLPDTVQDLKSRSRGKQNQQQQEQQKQMMPLQASTQEKNGL
As to B1, the Michaelis-Menten constant (Km) came out at 43.2 µM.
